# From patent EP1980246A1
# Key:
# [1] = biological target: recombinant human TGF-β1 (human) (UniProt P01137); test: active TGF-β ELISA, R2X capture, TGF-β titrated in TBS, BDA47 detection; ΔA50%
# [2] = biological target: purified porcine TGF-β1 (Peninsula) (porcine) (UniProt P07200); test: as above
# Sequence of purified porcine TGF-β1 (Peninsula) (porcine) (P07200 279-390 limits assumed): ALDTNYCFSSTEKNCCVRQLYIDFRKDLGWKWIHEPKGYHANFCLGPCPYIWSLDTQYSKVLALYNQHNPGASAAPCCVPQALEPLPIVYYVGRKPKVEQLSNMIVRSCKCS
# Sequence of recombinant human TGF-β1 (human) (P01137 279-390 limits assumed): as the sequence (P07200 279-390 limits assumed) above
substance,measurement,setting,value
truncated extracellular domain of the type II TGF-beta receptor fused to glutathione-S-transferase (R2X) (from UniProt P08515 1-218; P37173 23-166),EC50,[1],0.72 nM
same,EC50,[2],0.68 nM
